Test system: Escherichia coli TOP10
Assay: shrunken log2 fold change of peptide-encoding DNA abundance (4.5 h post-induction vs induction); higher = less antimicrobial activity (less host growth inhibition)
Conditions: time post-induction: 4.5 h; library: site-saturation at positions 5, 18, 19, 20
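Further: peptides expressed intracellularly from a pBAD plasmid library in pooled LB shake-flask culture, induced with 0.3% L-arabinose, DNA abundance read by NGS, three biological replicates, DESeq2 with apeglm shrinkage.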

Sequence | shrunken log2 fold change
RRIRPRPPRLPRPRPRPFWHPRP | -0.017
RRIRRRPPRLPRPRPRPQENPRP | -0.0472
RRIRTRPPRLPRPRPRPLFEPRP | -0.166
RRIRARPPRLPRPRPRPVVMPRP | 0.282
RRIRYRPPRLPRPRPRPYTKPRP | -0.351
RRIRCRPPRLPRPRPRPGNEPRP | -0.154
RRIRQRPPRLPRPRPRPIHQPRP | -0.15
RRIRQRPPRLPRPRPRPFFNPRP | -0.438
RRIRSRPPRLPRPRPRPHLRPRP | 0.092
RRIRCRPPRLPRPRPRPIEEPRP | 0.008
RRIRSRPPRLPRPRPRPYSSPRP | -0.271
RRIRMRPPRLPRPRPRPNTLPRP | -0.507
RRIRMRPPRLPRPRPRPVNAPRP | 0.297
RRIRTRPPRLPRPRPRPQYYPRP | -0.266
RRIRSRPPRLPRPRPRPLPEPRP | 0.278
RRIRWRPPRLPRPRPRPFWTPRP | 0.0519
RRIRMRPPRLPRPRPRPNMIPRP | -0.489
RRIRPRPPRLPRPRPRPPCPPRP | 0.294
RRIRERPPRLPRPRPRPFPTPRP | -0.573
RRIRERPPRLPRPRPRPLWYPRP | -0.287
RRIRRRPPRLPRPRPRPSYNPRP | -0.16
RRIRSRPPRLPRPRPRPPLSPRP | 0.125

Sequence | shrunken log2 fold change
RRIRFRPPRLPRPRPRPVEPPRP | -0.228
RRIRCRPPRLPRPRPRPEDRPRP | -0.0137
RRIRSRPPRLPRPRPRPRMFPRP | -0.121
RRIRCRPPRLPRPRPRPGLAPRP | 0.544
RRIRSRPPRLPRPRPRPPSKPRP | 0.0454
RRIRSRPPRLPRPRPRPIEVPRP | 0.0392
RRIRVRPPRLPRPRPRPCFPPRP | 0.228
RRIRGRPPRLPRPRPRPGMAPRP | 0.877
RRIRMRPPRLPRPRPRPLAIPRP | 0.173
RRIRLRPPRLPRPRPRPPNNPRP | -0.106
RRIRFRPPRLPRPRPRPMNQPRP | -0.528
RRIRPRPPRLPRPRPRPEMWPRP | 0.579
RRIRLRPPRLPRPRPRPMWVPRP | -0.314
RRIRDRPPRLPRPRPRPMICPRP | -0.0307
RRIRPRPPRLPRPRPRPINQPRP | -0.24
RRIRKRPPRLPRPRPRPKNSPRP | -0.0637
RRIRSRPPRLPRPRPRPNMKPRP | -0.436
RRIRVRPPRLPRPRPRPPAMPRP | 0.246
RRIRYRPPRLPRPRPRPQMYPRP | -0.286
RRIRPRPPRLPRPRPRPENWPRP | 0.264
RRIRTRPPRLPRPRPRPWGEPRP | 0.183
RRIRERPPRLPRPRPRPSADPRP | -0.625

Sequence | shrunken log2 fold change
RRIRRRPPRLPRPRPRPHIAPRP | -0.0643
RRIRARPPRLPRPRPRPQANPRP | 0.304
RRIRYRPPRLPRPRPRPEAHPRP | -0.281
RRIRMRPPRLPRPRPRPRNEPRP | 0.471
RRIRLRPPRLPRPRPRPVRVPRP | 0.428
RRIRKRPPRLPRPRPRPTSCPRP | 0.174
RRIRLRPPRLPRPRPRPLFGPRP | -0.0652
RRIRRRPPRLPRPRPRPTKDPRP | 0.209
RRIRSRPPRLPRPRPRPIRNPRP | -0.379
RRIRHRPPRLPRPRPRPHYRPRP | -0.0219
RRIRFRPPRLPRPRPRPTQHPRP | 0.168
RRIRRRPPRLPRPRPRPRPDPRP | 0.855
RRIRVRPPRLPRPRPRPNPGPRP | -0.131
RRIRWRPPRLPRPRPRPTWTPRP | 0.303
RRIRARPPRLPRPRPRPHHKPRP | -0.347
RRIRMRPPRLPRPRPRPIWRPRP | 0.128
RRIRMRPPRLPRPRPRPHKHPRP | -0.287
RRIRTRPPRLPRPRPRPQLLPRP | 0.0259
RRIRGRPPRLPRPRPRPNAHPRP | 0.754
RRIRCRPPRLPRPRPRPAHCPRP | 1.77
RRIRSRPPRLPRPRPRPAEMPRP | 0.125
RRIRTRPPRLPRPRPRPPDYPRP | -0.0981

Sequence | shrunken log2 fold change
RRIRQRPPRLPRPRPRPIYHPRP | -0.179
RRIRTRPPRLPRPRPRPWPAPRP | 0.61
RRIRKRPPRLPRPRPRPIDTPRP | -0.0729
RRIRARPPRLPRPRPRPPGYPRP | 0.365
RRIRVRPPRLPRPRPRPEKQPRP | 0.101
RRIRSRPPRLPRPRPRPNRDPRP | -0.233
RRIRERPPRLPRPRPRPQFVPRP | -0.312
RRIRNRPPRLPRPRPRPNMEPRP | -0.0369
RRIRARPPRLPRPRPRPCHCPRP | 0.164
RRIRWRPPRLPRPRPRPTFQPRP | 0.131
RRIRFRPPRLPRPRPRPWYEPRP | -0.0991
RRIRMRPPRLPRPRPRPIVEPRP | 0.456
RRIRIRPPRLPRPRPRPQYAPRP | 0.0303
RRIRVRPPRLPRPRPRPSVPPRP | -0.165
RRIRYRPPRLPRPRPRPCAAPRP | -0.642
RRIRKRPPRLPRPRPRPTHHPRP | 0.897
RRIRDRPPRLPRPRPRPFPHPRP | -0.303
RRIRLRPPRLPRPRPRPQHLPRP | -0.223
RRIRERPPRLPRPRPRPDQKPRP | -0.0097
RRIRRRPPRLPRPRPRPPHYPRP | 1.15
RRIRMRPPRLPRPRPRPEMPPRP | 0.791
RRIRSRPPRLPRPRPRPLIIPRP | -0.678

Sequence | shrunken log2 fold change
RRIRRRPPRLPRPRPRPLKAPRP | 0.785
RRIRGRPPRLPRPRPRPRYNPRP | -0.0667
RRIRMRPPRLPRPRPRPCPVPRP | 0.0171
RRIRERPPRLPRPRPRPQWLPRP | -0.168
RRIRGRPPRLPRPRPRPAGFPRP | 0.775
RRIRLRPPRLPRPRPRPPLAPRP | 0.519
RRIRCRPPRLPRPRPRPAGGPRP | 0.489
RRIRWRPPRLPRPRPRPVDHPRP | 0.0245
RRIRSRPPRLPRPRPRPKPRPRP | 0.594
RRIRCRPPRLPRPRPRPHTGPRP | -0.341
RRIRTRPPRLPRPRPRPDNAPRP | -0.223
RRIRQRPPRLPRPRPRPVIAPRP | 0.248
RRIRRRPPRLPRPRPRPFPCPRP | 0.038
RRIRSRPPRLPRPRPRPSNMPRP | -1.05
RRIRHRPPRLPRPRPRPEDWPRP | 0.83
RRIRLRPPRLPRPRPRPGYTPRP | -0.349
RRIRARPPRLPRPRPRPINLPRP | -0.376
RRIRYRPPRLPRPRPRPENRPRP | 0.0112
RRIRARPPRLPRPRPRPPWSPRP | 0.585
RRIRRRPPRLPRPRPRPAQGPRP | -0.179
RRIRMRPPRLPRPRPRPLKNPRP | -0.0484
